According to PMC6042391:

B1: Fab-dmCBTAU-22.1 (Fab, V domains shown)
VH: QVQLVQSGAEVKKPGAPVKVSCETSGYRFSDYFVHWVRQAPGQGPEWIGRIRPNSGGTKYAQKFQGRVTMTRDMSMNTAYMELSGLRSDDTAVYYCVRGHCDGTTCSRAYWGQGTLVTVSS
VL: DVVMTQSPLSLPVTPGEPASISCRSSQSLLHRSGHKYLHWYLQRPGQSPQVLIYLGSNRASGVPDRFSGSGSGTDFTLKISRVEAEDVGLYYCMQTLQTPWTFGQGTKVEIK
B2: Fab-CBTAU-22.1 (Fab, V domains shown)
VH: QVQLVQSGAEVKKPGAPVKVSCETSGYRFSDYNVHWVRQAPGQGPEWIGRISPNSGGTKYAQKFQGRVTMTRDMSMNTAYMELSGLRSDDTAVYYCVRGHCDGTTCSRAYWGQGTLVTVSS
VL: DVVMTQSPLSLPVTPGEPASISCRSSQSLLHRSGHKYLHWYLQRPGQSPQVLIYLGSNRASGVPDRFSGSGSGTDFTLKISRVEAEDVGLYYCMQTLQTPWTFGQGTKVEIK

Biological target: T1, tau peptide V1089–24
T1 sequence (peptide, phosphoserine at Ser422; biotin (position not stated)): SSTGSIDMVDSPQLATLA
Assay: BLI; biotinylated peptide V1089–24 (1 μg/ml) on streptavidin biosensors; 13 Fab concentrations in ForteBio's kinetics buffer; 600 s association, 600 s dissociation; steady state analysis

| Binder | Kd [nM] |
| --- | --- |
| B1 | 240 |
| B2 | 5600 |
